The nanobody polyreactivity screen of Harvey et al. (2022)

Assay: yeast display, Sf9 membrane polyspecificity reagent, FACS + sequencing; frameworks hold sequencing errors
Summary of the method: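 Using colony PCR, genes from sorted yeast display clones were amplified, then sequenced on MiSeq at 2 × 250 and filtered by CDR length. The clones had been stained with 10% biotinylated, detergent-solubilized Sf9 membrane reagent for 1 hour at 4 °C and sorted by FACS into low and high (top ~1%) gates on anti-HA and streptavidin fluorescence. Polyreactivity labels come from the gate of origin.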

Row | Sequence | polyreactivity (PSR sort gate)
1 | QVQLVESGGGLVQAGGSLRLSCAASGITFYGNAMGWYRQAPGKERELVANTYYADSVKGRFTISRDNAKNTVYLQMNSLKPEDTAVYYCATRNARYRSQPPGYDYWGQGTQVTVSS | low polyreactivity
2 | QVQLVESGGGLVQAGGSLRLSCAASGITFYGNAMGWYRQAPGKERELVATISRSDGRTYYADSVKGRFTISRDNANNTVYLQMNSLKPEDTAVYYCAAYTTRPYWGQGTQVTVSS | high polyreactivity
3 | QVQLVESGGGLVQAGGSLRLSCAASGITFYGYAMGWYRQAPGKERELVARISSGGTTKYADSVKGRFTISRDNAKNTVYLQMNSLKPEDTAVYYCAVGGYWWYYGFYYWGQGTQVTVSS | high polyreactivity
4 | QVQLVESGGGLVQAGGSLRLSCAASGITFYGYAMGWYRQAPGKERELVAVITSSGSSTYYADSVKGRFTISRDNAKNTVYLQMNSLKPEDTAVYDCNARPGRRSLRSRTYDYWGQGTQVTVSS | high polyreactivity
5 | QVQLVESGGGLVQAGGSLRLSCAASGITFYHYAMGWYRQAPGKKRELVASITDGGITKYADSVKGRFTISRDNAKYTVYLQMNSQNPEDTAVYYCAAIAYPDIPTYFDYDSDFFYWGQGTQVTVSS | high polyreactivity
6 | QVQLVESGGGLVQAGGSLRLSCAASGITFYIYAMGWYRQAPGKEREFVAAISDDGSTHYADSVKGRFTISRDNAKNTVYLQLNSLKPEDTAVYYCNADYYWFFDFFDYDYWGQGTQVTVSS | low polyreactivity
7 | QVQLVESGGGLVQAGGSLRLSCAASGITFYIYAMGWYRQSPGKERELVATISWSDGRTYYADSVKGRFTISRDNAKNTVYLLMNSLKPEDTAVYYCAADWWYYQFDYEYWGQGTQVTVSS | low polyreactivity
8 | QVQLVESGGGLVQAGGSLRLSCAASGITFYKNVMGWYRQAPGKERELVAAISSSGGSTYYADSVKGRFTISRDNAKNTVYLQMNSLKPEDTAVYYCAADDPLYTPYEFDYWGQGTQVTVSS | low polyreactivity
9 | QVQLVESGGGLVQAGGSLRLSCAASGITFYKNVMGWYRQAPGKERELVAAISSSGGSTYYADSVKGRFTISRDNAKNTVYLQMNSLKPEDTAVYYCAADEDDVVSGFLRYFYVAYYYWGQGTQVTVSS | low polyreactivity
10 | QVQLVESGGGLVQAGGSLRLSCAASGITFYKYTMGWYRQAPGKERELVAAISVRGGRTYYADSVKGRFTISRDNAKNTVYLQMNSLKPEDTAVYYCNRVPKDAYDYWGQGTQVTVSS | high polyreactivity
11 | QVQLVESGGGLVQAGGSLRLSCAASGITFYKYTMGWYRQAPGKERELVAAISVRGGRTYYADSVKGRFTISRDYAKNTVDLQMNSLKPEDTAVYYCAAGSQPGRKYYYWGQGTQVTVSS | high polyreactivity
12 | QVQLVESGGGLVQAGGSLRLSCAASGITFYLYAMGWYRQAPGKERELVAAISSSGGSTYYADSVKGRFTISRDNAKNTVYLQMNSLKPEDTAVYYCNASRRTVPYRYDYWGQGTQVTVSS | high polyreactivity
13 | QVQLVESGGGLVQAGGSLRLSCAASGITFYPYVMGWYRQAPGKERELVAVITWSGGRTYYADSVKGRFTISRDNAKNTVYLQMNSLKPEDTAVYYCAADPLSGYDYWGQGTQVTVSS | low polyreactivity
14 | QVQLVESGGGLVQAGGSLRLSCAASGITFYRNAMGWYRQAPGKERELVAAISWSGGRTYYADSVKGRFTISRDNAKNTVYLQMNSLKPEDTAVYYCNKYTHYYDYDYWGQGTQVTVSS | high polyreactivity
15 | QVQLVESGGGLVQAGGSLRLSCAASGITFYRNAMGWYRQATGKERELVAAITSGTSTYYADSVKGRFTISRDNAKNTVYLQMNSLKPEDTAVYYCAKRTPPGYYGFDYWGQGTQVTVSS | low polyreactivity
16 | QVQLVESGGGLVQAGGSLRLSCAASGITFYRYAMGWYRQAPGKEREFVAAITWGSTYYADSVKGRFTISRDNAKNTVYLQMNSLKPEDTAVYYCNKKGYTVGATVGYWGQGTQVTVSS | low polyreactivity
17 | QVQLVESGGGLVQAGGSLRLSCAASGITFYRYVMGWYRQAPGKERELVAAITSRGGSTSYADSVKGRFTISRDNAKNTVYLQMNSLKPEDTAVYNCAADLSGWGRDARGAYDYWGQGPQVTVSS | high polyreactivity
